From patent publication US20230037815A1 come the findings set out here.

This test has as its target cynomolgus CD19 (cynomolgus). In words: Octet HTX (ForteBio), IgG on AHC sensor, 1:1 fit. A general note: BLI is a label-free optical method that tracks binding on a fibre tip over time.

B1: CNG-CD19-102 (antibody, V domains shown)
VH: QVQLVQSGAEVKKPGASVKVSCKASGYEFTDYIMHWVRQAPGQGLEWMGYINPYNDGSKYTEKFQPRVTMTSDTSISTAYMELSRLRSDDTAVYYCARGTYYYGPQLFDYWGQGTTVTVSS
VL: DIVMTQTPLSLSVTPGQPASISCKSSQSLETSTGTTYLNWYLQKPGQSPQLLIYRVSKRFSGVPDRFSGSGSGTDFTLKISRVEAEDVGVYYCLQLLEDPYTFGQGTKLEIK
For the molecule B1, the Kd (usually the free concentration of one partner at which half of the binding sites on the other are occupied at equilibrium, for simple one-to-one binding) worked out at 12.1 nM and the off-rate (koff) (usually the rate constant with which the complex falls apart) is 0.00218 s⁻¹.

B2: CNG-CD19-104 (antibody, V domains shown)
VH: QVQLVQSGAEVKKPGASVKVSCKASGYDFTDYIVHWVRQAPGQGLEWMGYINPYNDGSKYTEKFQGRVTMTSDTSISTAYMELSRLRSDDTAVYYCARGTYYYGPELFDYWGQGTTVTVSS
VL: DIVMTQTPLSLSVTPGQPASISCKSGQSLETSTGTTYLNWYLQKPGQSPQLLIYRVSRRFSGVPDRFSGSGSGTDFTLKISRVEAEDVGVYYCLQLLEDPYTFGQGTKLEIK
In turn, B2 registered a Kd of 5.83 nM and a dissociation rate constant (koff) of 0.00148 s⁻¹.

B3: CNG-CD19-105 (antibody, V domains shown)
VH: QVQLVQSGAEVKKPGASVKVSCKASGYEFTDYIMHWVRQAPGQGLEWMGYINPYNDGSKYTEKFEGRVTMTSDTSISTAYMELSRLRSDDTAVYYCARGTYYYGPELFDYWGQGTTVTVSS
VL: DIVMTQTPLSLSVTPGQPASISCKSSQRLETSTGTTYLNWYLQKPGQSPQLLIYRVSRRFSGVPDRFSGSGSGTDFTLKISRVEAEDVGVYYCLQLLEDPPTFGQGTKLEIK
B3 came in with a dissociation constant Kd of 2.24 nM and an off-rate (koff) of 0.000679 s⁻¹.

B4: CNG-CD19-109 (antibody, V domains shown)
VH: QVQLVQSGAEVKKPGASVKVSCKASGYDFTDYIVHWVRQAPGQGLEWMGYINPYNDGSLYTEKFQGRVTMTSDTSISTAYMELSRLRSDDTAVYYCARGTYYYGPQLFDYWGQGTTVTVSS
VL: DIVMTQTPLSLSVTPGQPASISCKSSQQLETSTGTTYLNWYLQKPGQSPQLLIYRASKRFSGVPDRFSGSGSGTDFTLKISRVEAEDVGVYYCLQLLEDPYSFGQGTKLEIK
The molecule B4 returned a Kd of 4.03 nM and a koff of 0.00131 s⁻¹.

B5: CNG-CD19-108 (antibody, V domains shown)
VH: QVQLVQSGAEVKKPGASVKVSCKASGYDFTDYIVHWVRQAPGQGLEWMGYINPYNDGSKYTEKFQGRVTMTSDTSISTAYMELSRLRSDDTAVYYCARGTYYYGPQLFDYWGQGTTVTVSS
VL: DIVMTQTPLSLSVTPGQPASISCKSSQSLETVTGTTYLNWYLQKPGQSPQLLIYRVSKRFSGVPDRFSGSGSGTDFTLKISRVEAEDVGVYYCLQLLEDPPTFGQGTKLEIK
Regarding B5, the dissociation constant Kd came to 2.25 nM and the dissociation rate constant (koff) worked out at 0.00065 s⁻¹.

B6: CNG-CD19-103 (antibody, V domains shown)
VH: QVQLVQSGAEVKKPGASVKVSCKASGYTFTDYIMHWVRQAPGQGLEWMGYINPYNDGSKYTEKFQGRVTMTSDTSISTAYMELSRLRSDDTAVYYCARGTYYYGPQLFDYWGQGTTVTVSS
VL: DIVMTQTPLSLSVTPGQPASISCKSSQSLETATGTTYLNWYLQKPGQSPQLLIYRVSRRFSGVPDRFSGSGSGTDFTLKISRVEAEDVGVYYCLQLLEDPYSFGQGTKLEIK
In turn, B6 yielded a Kd of 4.69 nM and a koff of 0.00109 s⁻¹.

B7: CNG-CD19-101 (antibody, V domains shown)
VH: QVQLVQSGAEVKKPGASVKVSCKASGYDFTDYIMHWVRQAPGQGLEWMGYINPYNDGSKYTDKFQERVTMTSDTSISTAYMELSRLRSDDTAVYYCARGTYYYGPELFDYWGQGTTVTVSS
VL: DIVMTQTPLSLSVTPGQPASISCKSSQSLETTTGTTYLNWYLQKPGQSPQLLIYRASKRFSGVPDRFSGSGSGTDFTLKISRVEAEDVGVYYCLQLLEDPYTFGQGTKLEIK
As to B7, the Kd was found to be 9.91 nM and the koff was determined as 0.00233 s⁻¹.

B8: CNG-CD19-106 (antibody, V domains shown)
VH: QVQLVQSGAEVKKPGASVKVSCKASGYDFTDYIMHWVRQAPGQGLEWMGYINPYNDGSEYTEKFQGRVTMTSDTSISTAYMELSRLRSDDTAVYYCARGTYYYGPQLFDYWGQGTTVTVSS
VL: DIVMTQTPLSLSVTPGQPASISCKSSQSLETATGTTYLNWYLQKPGQSPQLLIYRVSRRFSGVPDRFSGSGSGTDFTLKISRVEAEDVGVYYCLQLLEDPYTFGQGTKLEIK
Consider B8, for which the Kd was 3.2 nM and the dissociation rate constant (koff) came out at 0.00123 s⁻¹.

B9: CNG-CD19-1 (antibody, V domains shown)
VH: QVQLVQSGAEVKKPGASVKVSCKASGYTFTDYIMHWVRQAPGQGLEWMGYINPYNDGSKYTEKFQGRVTMTSDTSISTAYMELSRLRSDDTAVYYCARGTYYYGPQLFDYWGQGTTVTVSS
VL: DIVMTQTPLSLSVTPGQPASISCKSSQSLETSTGTTYLNWYLQKPGQSPQLLIYRVSKRFSGVPDRFSGSGSGTDFTLKISRVEAEDVGVYYCLQLLEDPYTFGQGTKLEIK
In turn, B9 displayed a Kd of 9.39 nM and a koff of 0.00191 s⁻¹.

B10: CNG-CD19-110 (antibody, V domains shown)
VH: QVQLVQSGAEVKKPGASVKVSCKASGYTFTDYIMHWVRQAPGQGLEWMGYINPYNDGSKYTEKFQGRVTMTSDTSISTAYMELSRLRSDDTAVYYCARGTYYYGPQLFDYWGQGTTVTVSS
VL: DIVMTQTPLSLSVTPGQPASISCKSSQSLETSTGTTYLNWYLQKPGQSPQLLIYRSSKRFSGVPDRFSGSGSGTDFTLKISRVEAEDVGVYYCLQLLEDPPTFGQGTKLEIK
The molecule B10 had a Kd of 6.17 nM and a koff of 0.00164 s⁻¹.

B11: CNG-CD19-107 (antibody, V domains shown)
VH: QVQLVQSGAEVKKPGASVKVSCKASGYDFTDYIMHWVRQAPGQGLEWMGYINPYNDGSKYTEKFQHRVTMTSDTSISTAYMELSRLRSDDTAVYYCARGTYYYGPQLFDYWGQGTTVTVSS
VL: DIVMTQTPLSLSVTPGQPASISCKSSQSLETSTGTTYLNWYLQKPGQSPQLLIYRVSRRFSGVPDRFSGSGSGTDFTLKISRVEAEDVGVYYCLQLLEDPYTFGQGTKLEIK
In turn, B11 had a Kd of 5.64 nM and a dissociation rate constant (koff) of 0.00129 s⁻¹.

B12: CNG-CD19-703 (antibody, V domains shown)
VH: QVQLQESGPGLVKPSQTLSLTCTVSGGSISTSTMGVGWIRQHPGKGLEWIGFIWWDDDKRYNPNLKSRVTMSVDTSKNQFSLKLSSVTAADTAVYYCARMELWSYYFEYWGQGTLVTVSS
VL: EIVLTQSPATLSLSPGERATLSCSASSSVSYMHWYQQKPGQAPRLLIYDTSKLASGIPARFSGSGSGTDFTLTISSLEPEDFAVYYCFQGSVYPFTFGQGTKLEIK
In turn, B12 gave a Kd of 2.54 nM and a dissociation rate constant (koff) of 0.000352 s⁻¹.

B13: CNG-CD19-709 (antibody, V domains shown)
VH: QVQLQESGPGLVKPSQTLSLTCTVSGGSISTSTMGVGWIRQHPGKGLEWIGFIWWDDDKRYNPNLKSRVTMSVDTSKNQFSLKLSSVTAADTAVYYCARMELWSYYFDPWGQGTLVTVSS
VL: EIVLTQSPATLSLSPGERATLSCSASSSVGYMHWYQQKPGQAPRLLIYDTSKLAFGIPARFSGSGSGTDFTLTISSLEPEDFAVYYCFQGSVYPFTFGQGTKLEIK
For the molecule B13, the Kd stood at 0.639 nM and the koff is 0.000168 s⁻¹.

B14: CNG-CD19-707 (antibody, V domains shown)
VH: QVQLQESGPGLVKPSQTLSLTCTVSGGSISTSTMGVGWIRQHPGKGLEWIGFIWWDDDKRYNPNLKSRVTMSVDTSKNQFSLKLSSVTAADTAVYYCARMELWSYYFDPWGQGTLVTVSS
VL: EIVLTQSPATLSLSPGERATLSCSASSSVGYMHWYQQKPGQAPRLLIYDTSKLASGIPARFSGSGSGTDFTLTISSLEPEDFAVYYCFQGSVYPFTFGQGTKLEIK
With B14, the Kd was 0.738 nM and the koff amounted to 0.000207 s⁻¹.

B15: CNG-CD19-706 (antibody, V domains shown)
VH: QVQLQESGPGLVKPSQTLSLTCTVSGGSIASGMGVSWIRQHPGKGLEWIGHIWWDDDKRYNPALKSRVTISVDTSKNQFSLKLSSVTAADTAVYYCARMELWSYYFDPWGQGTLVTVSS
VL: EIVLTQSPATLSLSPGERATLSCSASSSVGYMHWYQQKPGQAPRLLIYDTSKLASGIPARFSGSGSGTDFTLTISSLEPEDFAVYYCFQGSVYPFTFGQGTKLEIK
B15 had an equilibrium dissociation constant (Kd) of 0.372 nM and a koff of 0.00012 s⁻¹.

B16: CNG-CD19-7 (antibody, V domains shown)
VH: QVQLQESGPGLVKPSQTLSLTCTVSGGSISTSGMGVGWIRQHPGKGLEWIGHIWWDDDKRYNPALKSRVTISVDTSKNQFSLKLSSVTAADTAVYYCARMELWSYYFDYWGQGTLVTVSS
VL: EIVLTQSPATLSLSPGERATLSCSASSSVSYMHWYQQKPGQAPRLLIYDTSKLASGIPARFSGSGSGTDFTLTISSLEPEDFAVYYCFQGSVYPFTFGQGTKLEIK
B16 gave an equilibrium dissociation constant (Kd) of 8.43 nM and a koff of 0.000832 s⁻¹.

B17: CNG-CD19-710 (antibody, V domains shown)
VH: QVQLQESGPGLVKPSQTLSLTCTVSGVSISTSSMGVGWIRQHPGKGLEWIGHAWWDDDKRYNPALKSRVTISVDTSKNQFSLKLSSVTAADTAVYYCARMELWSYYFDPWGQGTLVTVSS
VL: EIVLTQSPATLSLSPGERATLSCSASSSFSYMHWYQQKPGQAPRLLIYDTSKLASGIPARFSGSGSGTDFTLTISSLEPEDFAVYYCFQGSVYPFTFGQGTKLEIK
Regarding B17, the Kd came out at 1.54 nM and the koff was found to be 0.000328 s⁻¹.

B18: CNG-CD19-705 (antibody, V domains shown)
VH: QVQLQESGPGLVKPSQTLSLTCTVSGGSISTSGMGVGWIRQHPGKGLEWIGHIWWDDDKRYNPALKSRVTISVDTSKNQFSLKLSSVTAADTAVYYCARMELWSYYFDYWGQGTLVTVSS
VL: EIVLTQSPATLSLSPGERATLSCSASSSVGYMHWYQQKPGQAPRLLIYDTSSLASGIPARFSGSGSGTDFTLTISSLEPEDFAVYYCFQGSVYPFTFGQGTKLEIK
Molecule B18 gave an equilibrium dissociation constant (Kd) of 6.02 nM and a dissociation rate constant (koff) of 0.000837 s⁻¹.

B19: CNG-CD19-708 (antibody, V domains shown)
VH: QVQLQESGPGLVKPSQTLSLTCTVSGGSISTSTMGVGWIRQHPGKGLEWIGFIWWDDDKRYNPNLKSRVTMSVDTSKNQFSLKLSSVTAADTAVYYCARMELWSYYFDPWGQGTLVTVSS
VL: EIVLTQSPATLSLSPGERATLSCSASSSVGYMHWYQQKPGQAPRLLIYDTSKLSSGIPARFSGSGSGTDFTLTISSLEPEDFAVYYCFQGSVYPFTFGQGTKLEIK
For the molecule B19, the Kd was 1.02 nM and the off-rate constant (koff) amounted to 0.000223 s⁻¹.

B20: CNG-CD19-704 (antibody, V domains shown)
VH: QVQLQESGPGLVKPSQTLSLTCTVSGGSIASGMGVGWIRQHPGKGLEWIGHIWWDDDKRYNPALKSRVTISVDTSKNQFSLKLSSVTAADTAVYYCARMELWSYYFDGWGQGTLVTVSS
VL: EIVLTQSPATLSLSPGERATLSCSASSSVSYMHWYQQKPGQAPRLLIYDTSKLASGIPARFSGSGSGTDFTLTISSLEPEDFAVYYCFQGSVYPFTFGQGTKLEIK
The molecule B20 registered a Kd of 1.24 nM and a koff of 0.000194 s⁻¹.
